Earlier results on one substance are cited in article PMC6589385.

For this data set, the target named is His37 (UniProt position 37, IIGILHLILWI). The data set can be described thus: NMR. The conditions noted are these: Membrane-bound wild-type AM2 tetrameric channel.

On to “Influenza A virus M2 protein (AM2) transmembrane domain, wild type (Influenza A virus)”, for which the pKa is listed as 5.9.
